The values below come from patent US20260250421A1 (BIOCYTOGEN PHARMACEUTICALS BEIJING, published 2026).

Numbering of substitutions follows the chain as printed.

To fix the notation:
B1: 3C4 (antibody, V domains shown)
VH: QVQLEQSRAEVKKPGESLRISCKGSGYSFTSYWISWVRQMPGKGLEWMGRIDPSDSYTNYNPSFQGHVTISADKSISTAYLQWSSLKASDTAMYYCARRDGSYFDFDYWGQGTLVTVSS
VL: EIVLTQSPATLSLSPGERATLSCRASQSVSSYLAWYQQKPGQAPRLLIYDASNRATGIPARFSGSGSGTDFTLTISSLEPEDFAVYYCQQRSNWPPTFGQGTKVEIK
notes: also called anti-PTK7 antibody 3C4
B2: 3E6 (antibody, V domains shown)
VH: B1 VH with E5V, Q6E, R8G, K23R, N59K, N61S, S102D
VL: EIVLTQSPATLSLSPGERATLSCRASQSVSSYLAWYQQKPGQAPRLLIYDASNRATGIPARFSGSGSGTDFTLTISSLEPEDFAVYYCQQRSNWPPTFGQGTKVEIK
notes: also called anti-PTK7 antibody 3E6
B3: 1F2 (antibody, V domains shown)
VH: QVQLVQSGGGLVQPGGSLRLSCAASGFTFSRYEMNWVRQAPGKGLEWVSYINSIGSAINYADSVKGRFTISRDNAKNSLYLQMRSLRAEDTAVYYCVREDNWNPGYWGQGTLVTVSS
VL: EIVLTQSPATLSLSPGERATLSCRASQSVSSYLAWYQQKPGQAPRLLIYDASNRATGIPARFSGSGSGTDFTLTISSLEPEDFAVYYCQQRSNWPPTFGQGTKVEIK
notes: also called anti-PTK7 antibody 1F2
B4: 1A11 (antibody, V domains shown)
VH: QVQLVQSGPGLVKPSETLSLTCTVSGGSINSYYWNWIRQPPGKGLEWIGYIYYSGSTNYNPSLKSRVTISVDTSKNQFSLKLSSVTAADTAVYYCARDPHDYIRGHFDLWGRGTLFTVSS
VL: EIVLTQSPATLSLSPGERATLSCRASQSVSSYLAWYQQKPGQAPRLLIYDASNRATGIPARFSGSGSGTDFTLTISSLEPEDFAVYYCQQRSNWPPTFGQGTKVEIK
notes: also called anti-PTK7 antibody 1A11
B5: 1A7 (antibody, human IgG1, V domains shown)
VH: QVQLVESGGGVVQPGRSLRLSCAASGFTFSNYGMHWVRQAPGKGLEWVAVIYYDGSNKFYADSVKGRFTISRDNSKNTLYLQMSSLRAEDTAVYYCARDVAPPGSRAEYFHHWGQGTLVTVSS
VL: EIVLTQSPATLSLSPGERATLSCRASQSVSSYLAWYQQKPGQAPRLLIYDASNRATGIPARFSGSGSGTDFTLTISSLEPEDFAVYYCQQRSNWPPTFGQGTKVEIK
notes: also called anti-PTK7 antibody 1A7
B6: 2A5 (antibody, V domains shown)
VH: B5 VH with E6Q, Y52W, S56R, F59Y, S84N, P103A, H111Q, H112N
VL: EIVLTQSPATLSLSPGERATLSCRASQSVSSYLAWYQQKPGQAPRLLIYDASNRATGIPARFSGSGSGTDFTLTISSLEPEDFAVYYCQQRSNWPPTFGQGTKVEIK
notes: also called anti-PTK7 antibody 2A5
B7: 2F5 (antibody, V domains shown)
VH: B5 VH with A23V, V50I, F59Y, S84N, P102A, P103A, F110L
VL: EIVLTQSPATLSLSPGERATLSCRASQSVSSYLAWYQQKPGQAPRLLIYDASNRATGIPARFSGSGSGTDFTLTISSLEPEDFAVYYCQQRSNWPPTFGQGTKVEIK
notes: also called anti-PTK7 antibody 2F5
B8: 2D11 (antibody, V domains shown)
VH: B5 VH with N31S, Y52F, F59Y, S84N, A92S, P102A, H111Q, H112N
VL: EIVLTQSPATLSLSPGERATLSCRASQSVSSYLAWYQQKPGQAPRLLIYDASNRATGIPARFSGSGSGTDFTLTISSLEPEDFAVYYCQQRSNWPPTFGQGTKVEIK
notes: also called anti-PTK7 antibody 2D11

The first test addresses T1, human PTK7 on human cancer cell lines (human, UniProt Q13308 31-1070).
T1 construct: Endogenous PTK7 of human tumour cell lines; also called PTK7 on A-431, NCI-H520, NCI-N87, SK-OV-3, BT-20, HCC1954, NCI-H226, NCI-H358, HCT116, PC-3, NCI-H292, NCI-H1975 cells
T1 sequence: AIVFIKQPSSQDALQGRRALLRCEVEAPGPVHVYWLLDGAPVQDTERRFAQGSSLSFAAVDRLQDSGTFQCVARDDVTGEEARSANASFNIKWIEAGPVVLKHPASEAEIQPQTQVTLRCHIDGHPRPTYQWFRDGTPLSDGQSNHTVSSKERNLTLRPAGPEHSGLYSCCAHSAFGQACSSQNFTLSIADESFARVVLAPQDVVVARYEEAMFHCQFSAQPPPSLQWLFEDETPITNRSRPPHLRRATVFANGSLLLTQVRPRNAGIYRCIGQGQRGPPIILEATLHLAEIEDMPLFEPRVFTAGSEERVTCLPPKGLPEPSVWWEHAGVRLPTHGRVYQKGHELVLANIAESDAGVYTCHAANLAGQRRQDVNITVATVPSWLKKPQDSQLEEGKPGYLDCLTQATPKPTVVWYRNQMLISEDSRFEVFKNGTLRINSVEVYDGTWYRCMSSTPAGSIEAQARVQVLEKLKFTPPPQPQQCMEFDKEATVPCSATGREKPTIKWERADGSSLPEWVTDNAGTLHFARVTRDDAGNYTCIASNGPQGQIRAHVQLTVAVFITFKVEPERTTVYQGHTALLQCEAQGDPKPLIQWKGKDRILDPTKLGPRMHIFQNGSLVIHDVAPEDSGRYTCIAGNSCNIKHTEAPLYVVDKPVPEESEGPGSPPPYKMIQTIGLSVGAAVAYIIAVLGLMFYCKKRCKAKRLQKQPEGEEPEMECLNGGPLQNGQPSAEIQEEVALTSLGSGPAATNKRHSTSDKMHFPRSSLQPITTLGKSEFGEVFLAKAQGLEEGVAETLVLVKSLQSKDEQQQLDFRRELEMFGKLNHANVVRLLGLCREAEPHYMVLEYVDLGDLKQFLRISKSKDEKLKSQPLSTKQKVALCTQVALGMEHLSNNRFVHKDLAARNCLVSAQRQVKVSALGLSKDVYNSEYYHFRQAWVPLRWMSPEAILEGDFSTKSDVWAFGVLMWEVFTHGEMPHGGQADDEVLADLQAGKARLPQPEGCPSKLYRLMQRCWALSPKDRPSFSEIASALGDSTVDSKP
Put plainly: flow cytometry, HCT116 cells, Ab 5 ug/mL. The method, then: (§1) The binding activity of anti-PTK7 antibodies to cancer cell lines was verified by flow cytometry. […] Purified anti-PTK7 antibody with a concentration of 5 μg/mL was added to each well and was incubated at 4° C. for 30 minutes. […] The cells were collected, and the mean fluorescence intensity (MFI) was determined. Human IgG1 was used as ISO control.
In the case of B1, the MFI was 230000.
On the same count and under the same terms, with B2 the figure was 339000; with B3, 149000.
With B4, the MFI came out at 260000.
On the same count and under the same terms, the same measure for B5: 115000.
Same read-out and setting: the same measure for B6: 234000.
Same read-out and setting: the same measure for B7: 133000; for B8: 287000.

A further test concerns the target T1, human PTK7 on human cancer cell lines. Put plainly: flow cytometry, NCI-H292 cells, Ab 5 ug/mL. The method, then: as §1
For orientation: A flow cytometer gives signals particle by particle.
Turning to B1, the MFI is 92400.
Same read-out and setting: the same measure for B2: 141000; for B3: 69300.
Regarding B4, the MFI was determined as 125000.
Still for that read-out and setting: with B5 the figure was 43500; with B6, 92000.
The same measure, in the same setting: with B7 the figure was 44500.
Still for that read-out and setting: the same measure for B8: 134000.

A further test has the same target. The test is described as follows: flow cytometry, NCI-H520 cells, Ab 5 ug/mL. The method, then: as §1
In the case of B1, the MFI is 282000.
With B2, the MFI came out at 310000.
Same read-out and setting: with B3 the figure was 216000; with B4, 296000.
B5: the MFI was found to be 190000.
On the same count and under the same terms, the same measure for B6: 283000.
The same measure, in the same setting: with B7 the figure was 199000.
On the same count and under the same terms, with B8 the figure was 312000.

In the next test the target is T2, His-tagged dog PTK7 protein (dog, UniProt Q13308 31-703 (human entry)).
T2 construct: also called dPTK7-His
T2 chain: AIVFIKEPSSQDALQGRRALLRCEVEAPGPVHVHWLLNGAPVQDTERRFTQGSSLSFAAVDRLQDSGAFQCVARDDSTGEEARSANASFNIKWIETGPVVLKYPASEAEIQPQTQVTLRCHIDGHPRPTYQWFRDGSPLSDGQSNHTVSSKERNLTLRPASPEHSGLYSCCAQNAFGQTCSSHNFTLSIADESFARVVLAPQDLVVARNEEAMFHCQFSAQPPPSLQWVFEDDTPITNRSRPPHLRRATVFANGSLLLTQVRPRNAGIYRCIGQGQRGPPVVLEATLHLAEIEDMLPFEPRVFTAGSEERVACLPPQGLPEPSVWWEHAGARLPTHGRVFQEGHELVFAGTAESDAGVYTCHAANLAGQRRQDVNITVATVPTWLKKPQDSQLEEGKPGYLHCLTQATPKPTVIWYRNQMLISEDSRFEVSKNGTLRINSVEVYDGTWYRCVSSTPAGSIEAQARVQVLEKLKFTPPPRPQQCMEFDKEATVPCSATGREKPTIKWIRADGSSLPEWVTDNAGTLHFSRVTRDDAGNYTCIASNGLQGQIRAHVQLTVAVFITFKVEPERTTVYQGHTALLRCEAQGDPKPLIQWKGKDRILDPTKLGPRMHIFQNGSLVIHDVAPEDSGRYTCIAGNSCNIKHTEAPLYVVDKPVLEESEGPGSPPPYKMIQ
The test is described as follows: SPR Biacore 8K, Ab on Protein A chip. The method, then:
Purified anti-PTK7 antibodies were diluted to 1 μg/mL and then injected into the Biacore™ 8K biosensor at 10 μL/min for about 50 seconds to achieve a desired protein density (e.g., about 50 response units (RU)). The His-tagged PTK7 protein at a concentration of 200 nM or 0 nM was then injected at 30 μL/min for 180 seconds. Dissociation was monitored for 400 seconds. The chip was regenerated after the last injection of each titration with glycine (pH 2.0, 30 μL/min for 30 seconds).
In general terms: SPR reads the build-up and loss of mass on a sensor chip optically.
In the case of B1, the Kd came out at 8.48 nM, the koff is 0.00399 s⁻¹ and the kon amounted to 471000 M⁻¹ s⁻¹.
The like results for B2 were, in that order, 11.6 nM, 0.00171 s⁻¹ and 147000 M⁻¹ s⁻¹.
With B3, the Kd is 21.2 nM, the koff is 0.00927 s⁻¹ and the kon was found to be 437000 M⁻¹ s⁻¹.
For B4, in that order: 14.5 nM, 0.00123 s⁻¹ and 84600 M⁻¹ s⁻¹.
For B5, in that order: 2.3 nM, 0.000133 s⁻¹ and 58000 M⁻¹ s⁻¹.
For B6, in that order: 3.43 nM, 0.000167 s⁻¹ and 48600 M⁻¹ s⁻¹.
Molecule B7 had a Kd of 11.1 nM, a koff of 0.000563 s⁻¹ and a kon of 50700 M⁻¹ s⁻¹.
B8 returned a dissociation constant (Kd) of 0.898 nM, a koff of 5.47e-05 s⁻¹ and a kon of 60900 M⁻¹ s⁻¹.

The Kd is the equilibrium constant for the complex coming apart. Lower therefore signals a tighter complex. The koff is a measure of how fast the partners let go of each other. The low end stands for slow dissociation, the high end for fast dissociation. Broadly, the kon is the second-order rate constant of association. A high value points to fast association.
